Each block holds one molecule with its values, some of them ahead of it.
Experiments:
[1] = target: E69QE173Q-PsbS (Arabidopsis thaliana); assay: cross-linking; isolated thylakoids (60 ug Chl) in the light state (700 umol photons m^-2 s^-1); 0.1 mM DTSSP for 1 min in reaction buffer pH 8.0; SDS-PAGE and western blot with PsbS antibody; densitometry of dimer against total PsbS
[2] = target: E69QE173Q-PsbS (Arabidopsis thaliana); assay: cross-linking; isolated thylakoids (60 ug Chl) in the recovery-2 state (darkness after illumination); 0.1 mM DTSSP for 1 min in reaction buffer pH 8.0; SDS-PAGE and western blot with PsbS antibody; densitometry of dimer against total PsbS
[3] = target: E69QE173Q-PsbS (Arabidopsis thaliana); assay: cross-linking; isolated thylakoids (60 ug Chl) in the dark-adapted state; 0.1 mM DTSSP for 1 min in reaction buffer pH 8.0; SDS-PAGE and western blot with PsbS antibody; densitometry of dimer against total PsbS
[4] = target: E69QE173Q-PsbS (Arabidopsis thaliana); assay: cross-linking; isolated thylakoids (60 ug Chl) in the recovery-1 state (darkness after illumination); 0.1 mM DTSSP for 1 min in reaction buffer pH 8.0; SDS-PAGE and western blot with PsbS antibody; densitometry of dimer against total PsbS
[5] = target: H3-PsbS (PsbS with the H3 motif I74, Y75, E76 deleted) (Arabidopsis thaliana) (UniProt Q9XF91); assay: cross-linking; isolated thylakoids (60 ug Chl) in the light state (700 umol photons m^-2 s^-1); 0.1 mM DTSSP for 1 min in reaction buffer pH 8.0; SDS-PAGE and western blot with PsbS antibody; densitometry of dimer against total PsbS
[6] = target: H3-PsbS (PsbS with the H3 motif I74, Y75, E76 deleted) (Arabidopsis thaliana) (UniProt Q9XF91); assay: cross-linking; isolated thylakoids (60 ug Chl) in the recovery-2 state (darkness after illumination); 0.1 mM DTSSP for 1 min in reaction buffer pH 8.0; SDS-PAGE and western blot with PsbS antibody; densitometry of dimer against total PsbS
[7] = target: T1, PsbS protein (wild type, Arabidopsis thaliana) (Arabidopsis thaliana (endogenous in wild-type thylakoids)), Q9XF91; assay: cross-linking; isolated thylakoids (60 ug Chl) in the light state (700 umol photons m^-2 s^-1); 0.1 mM DTSSP for 1 min in reaction buffer pH 8.0; SDS-PAGE and western blot with PsbS antibody; densitometry of dimer against total PsbS; conditions: remark: other sources report otherwise
T1 chain: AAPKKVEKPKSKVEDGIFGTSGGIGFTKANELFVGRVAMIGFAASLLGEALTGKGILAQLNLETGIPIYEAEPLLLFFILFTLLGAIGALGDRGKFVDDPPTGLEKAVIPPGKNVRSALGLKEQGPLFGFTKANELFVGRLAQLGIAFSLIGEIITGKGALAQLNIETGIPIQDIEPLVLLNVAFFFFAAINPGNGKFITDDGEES

[8] = target: T1, PsbS protein (wild type, Arabidopsis …); assay: cross-linking; isolated thylakoids (60 ug Chl) in the recovery-2 state (darkness after illumination); 0.1 mM DTSSP for 1 min in reaction buffer pH 8.0; SDS-PAGE and western blot with PsbS antibody; densitometry of dimer against total PsbS; conditions: remark: other sources report otherwise
[9] = target: T1, PsbS protein (wild type, Arabidopsis …); assay: cross-linking; isolated thylakoids (60 ug Chl) in the recovery-1 state (darkness after illumination); 0.1 mM DTSSP for 1 min in reaction buffer pH 8.0; SDS-PAGE and western blot with PsbS antibody; densitometry of dimer against total PsbS; conditions: remark: other sources report otherwise
[10] = target: T1, PsbS protein (wild type, Arabidopsis …); assay: cross-linking; isolated thylakoids (60 ug Chl) in the dark-adapted state; 0.1 mM DTSSP for 1 min in reaction buffer pH 8.0; SDS-PAGE and western blot with PsbS antibody; densitometry of dimer against total PsbS; conditions: remark: other sources report otherwise

- cross-linked PsbS dimer content relative to total PsbS [1]: 18.6%
- cross-linked PsbS dimer content relative to total PsbS [2]: 25.6%
- cross-linked PsbS dimer content relative to total PsbS [3]: 21.7%
- cross-linked PsbS dimer content relative to total PsbS [4]: 21.4%
Molecule: E69QE173Q-PsbS (natural protein)

- dimer-to-monomer transition, percent lower than the WT (% lower than WT) [5]: 50.8
- total recovery to PsbS dimers, percent of the WT level (% of the WT level) [6]: 62.6
Molecule: H3-PsbS (PsbS with the H3 motif I74, Y75, E76 deleted) (from UniProt Q9XF91 60-265) (natural protein)

- cross-linked PsbS dimer content relative to total PsbS [7]: 31.7%
- cross-linked PsbS dimer content relative to total PsbS [8]: 50.4%
- cross-linked PsbS dimer content relative to total PsbS [9]: 39.5%
- cross-linked PsbS dimer content relative to total PsbS [10]: 44.9%
B1: PsbS protein (wild type, Arabidopsis thaliana), Q9XF91 60-265 (natural protein)
chain: T1 chain
